PMC9894162

Target: GST-NS5 (Zika virus, UniProt A0A1B0XTC8 2521-3423)
Assay: EMSA

B1: genomic Sox2 DNA duplex (dsDNA)
DNA 1: TCAGCAAGCGCCTGGGCGCCGAGTGGAAACTTTTG
DNA 2: CAAAAGTTTCCACTCGGCGCCCAGGCGCTTGCTGA
B1: binds.
